Assay results: US20250326814A1, “MODIFIED OXYNTOMODULIN AND METHODS OF USE THEREOF” (OPKO BIOLOGICS LTD., priority 2024, published 2025)

Legend:
[1] = target: glucagon-like peptide-1 receptor (GLP-1R); assay: cell-based or functional assay
[2] = target: glucagon receptor (GCGR); assay: cell-based or functional assay

| Substance | EC50 (nM), GLP-1 activity [1] | % EC50 compare to KPI (GCGR), with HSA added (KPI + HSA) [2] | EC50 (nM) GCGR, glucagon activity in vitro [2] | EC50 [nM] GCGR, CBA potency assay [2] | EC50 [nM] GCGR, CBA potency assay, with HSA added (KPI + HSA) [2] | EC50 [nM] GCGR, CBA potency assay, without HSA [2] | % EC50 compare to KPI (GLP1), with HSA added (KPI + HSA) [1] | EC50 (nM) GLP-1R, GLP-1 activity in vitro [1] | EC50 [nM] GLP1, CBA potency assay [1] | EC50 [nM] GLP1, CBA potency assay, with HSA added (KPI + HSA) [1] | EC50 [nM] GLP1, CBA potency assay, without HSA [1] |
| --- | --- | --- | --- | --- | --- | --- | --- | --- | --- | --- | --- |
| Tirzepatide (Mounjaro, Zepbound) (peptide) | 0.9 nM | – | – | – | – | – | – | – | – | – | – |
| OPK-88003 KPI (SEQ ID NO: 3 where Xaa38=Cys and Xaa39=Cys) (peptide) | 0.105 nM | 129% | 0.0731 nM | 0.6 nM | 1.06 nM | 1.37 nM | 107% | 0.0168 nM | 0.127 nM | 0.187 nM | 0.201 nM |
